Molecular target: thrombin (Sigma, Germany)

| Substance | antithrombin activity by thrombin titration (bovine fibrinogen, fibrin clot within 1 min as endpoint, 37 °C, 50 mM Tris-HCl pH 7.4) |
| --- | --- |
| recombinant hirudin from Hirudo nipponia (candidate hirudin gene c16237_g1) (natural protein) | 14000 ATU/mL |
| commercially available hirudin (MedChem Express) (natural protein) | 12000 ATU/mL |
